The record followed here is PMC6902002, “Recognition and processing of branched DNA substrates by Slx1–Slx4 nuclease”.

The data set concerns the target T1, Tt-Slx1 E79Q-Slx4CCD3 (Thielavia terrestris, UniProt G2QV68;G2RCY5 1-324;834-936, E79Q).
T1 sequence 1: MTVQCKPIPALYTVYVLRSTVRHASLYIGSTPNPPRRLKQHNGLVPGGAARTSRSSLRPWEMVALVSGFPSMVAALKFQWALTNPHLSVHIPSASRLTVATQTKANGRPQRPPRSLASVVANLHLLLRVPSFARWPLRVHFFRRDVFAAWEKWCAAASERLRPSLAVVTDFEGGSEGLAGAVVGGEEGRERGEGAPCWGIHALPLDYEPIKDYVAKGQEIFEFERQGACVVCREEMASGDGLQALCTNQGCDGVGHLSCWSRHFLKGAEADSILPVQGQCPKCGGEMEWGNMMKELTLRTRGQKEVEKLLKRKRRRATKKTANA
T1 sequence 2: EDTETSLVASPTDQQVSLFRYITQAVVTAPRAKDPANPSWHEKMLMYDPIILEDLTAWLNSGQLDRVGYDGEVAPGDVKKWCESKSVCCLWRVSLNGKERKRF
Briefly: X-ray crystallography; Zn2+ in RING domain; 0.2 M CaCl2, 5 mM EDTA, pH 6.0; 2.7 A; Fluorescence anisotropy: 20 mM HEPES pH 7.5, 2.5 mM CaCl2, 100 mM NaCl, 0.1 mg/ml BSA, 25 C; 25 nM DNA, 0-500 nM protein. The following applies: protein: recombinant; tags: N-terminal 6xHis on Slx1; Slx4CCD3 untagged; chain copies: 2;2; self-annealed splayed arm; single G-A mismatch and unpaired bases in crystal. A general note: Fluorescence polarisation rises when a labelled molecule tumbles more slowly, as on binding a larger partner.

In the case of CAATCGGCAATGACCTTTGGTCATTCGGCAGAT (structured_DNA) [self-annealing splayed-arm crystallization DNA], the binding result is “binds”.
